According to paper PMC8266636, “Rrp1 translocase and ubiquitin ligase activities restrict the genome destabilising effects of Rad51 in fission yeast” (Nucleic Acids Research, 2020):

Legend:
Rad51 = target: T1, Rad51 (Schizosaccharomyces pombe, UniProt P36601 1-365); assay: fluorescence anisotropy; 2 mM ATP; 3.5 mM Mg2+; 6 uM Rad51; scavenger ssDNA for koff; EMSA: 25 mM HEPES pH 7.5, 1 mM DTT, 60 mM KCl, 2 mM ATP, 3.5 mM MgCl2, 5% glycerol, 37 C, 0.2% glutaraldehyde; anisotropy: 30 mM HEPES pH 7.5, 1 mM DTT, 50 mM NaCl, 100 mM KCl, 2 mM ATP, 8 mM PC, 8 U/ml CPK, 3.5 mM MgCl2, 2.5% glycerol, 37 C; conditions: protein: recombinant; label: 5'-TAMRA on 16A(-); blunt
T1 sequence: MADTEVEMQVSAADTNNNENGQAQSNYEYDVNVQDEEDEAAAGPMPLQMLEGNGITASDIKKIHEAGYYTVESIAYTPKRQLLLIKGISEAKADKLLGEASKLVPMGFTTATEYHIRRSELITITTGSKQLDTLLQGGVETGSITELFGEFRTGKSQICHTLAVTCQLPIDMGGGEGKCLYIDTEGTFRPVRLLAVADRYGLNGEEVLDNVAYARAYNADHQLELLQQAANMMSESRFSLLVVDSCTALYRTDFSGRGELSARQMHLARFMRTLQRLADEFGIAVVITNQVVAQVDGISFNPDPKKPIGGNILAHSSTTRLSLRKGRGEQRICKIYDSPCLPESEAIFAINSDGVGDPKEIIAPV

Rrp1;Rad51 = target: T2, Rrp1;Rad51 (Schizosaccharomyces …, UniProt O13762;P36601 1-897;1-365, |); assay: fluorescence anisotropy; 2 mM ATP; 3.5 mM Mg2+; scavenger PhiX174 ssDNA; EMSA: 25 mM HEPES pH 7.5, 1 mM DTT, 60 mM KCl, 2 mM ATP, 3.5 mM MgCl2, 5% glycerol, 37 C, 0.2% glutaraldehyde; anisotropy: 30 mM HEPES pH 7.5, 1 mM DTT, 50 mM NaCl, 100 mM KCl, 2 mM ATP, 8 mM PC, 8 U/ml CPK, 3.5 mM MgCl2, 2.5% glycerol, 37 C; conditions: protein: recombinant;recombinant; tags: 3xFLAG (methods: N-terminal 3xFLAG and C-terminal GST, but construct named GST-Rrp1-FLAG); GST removed by HRV-3C;; single strand
T2 sequence 1: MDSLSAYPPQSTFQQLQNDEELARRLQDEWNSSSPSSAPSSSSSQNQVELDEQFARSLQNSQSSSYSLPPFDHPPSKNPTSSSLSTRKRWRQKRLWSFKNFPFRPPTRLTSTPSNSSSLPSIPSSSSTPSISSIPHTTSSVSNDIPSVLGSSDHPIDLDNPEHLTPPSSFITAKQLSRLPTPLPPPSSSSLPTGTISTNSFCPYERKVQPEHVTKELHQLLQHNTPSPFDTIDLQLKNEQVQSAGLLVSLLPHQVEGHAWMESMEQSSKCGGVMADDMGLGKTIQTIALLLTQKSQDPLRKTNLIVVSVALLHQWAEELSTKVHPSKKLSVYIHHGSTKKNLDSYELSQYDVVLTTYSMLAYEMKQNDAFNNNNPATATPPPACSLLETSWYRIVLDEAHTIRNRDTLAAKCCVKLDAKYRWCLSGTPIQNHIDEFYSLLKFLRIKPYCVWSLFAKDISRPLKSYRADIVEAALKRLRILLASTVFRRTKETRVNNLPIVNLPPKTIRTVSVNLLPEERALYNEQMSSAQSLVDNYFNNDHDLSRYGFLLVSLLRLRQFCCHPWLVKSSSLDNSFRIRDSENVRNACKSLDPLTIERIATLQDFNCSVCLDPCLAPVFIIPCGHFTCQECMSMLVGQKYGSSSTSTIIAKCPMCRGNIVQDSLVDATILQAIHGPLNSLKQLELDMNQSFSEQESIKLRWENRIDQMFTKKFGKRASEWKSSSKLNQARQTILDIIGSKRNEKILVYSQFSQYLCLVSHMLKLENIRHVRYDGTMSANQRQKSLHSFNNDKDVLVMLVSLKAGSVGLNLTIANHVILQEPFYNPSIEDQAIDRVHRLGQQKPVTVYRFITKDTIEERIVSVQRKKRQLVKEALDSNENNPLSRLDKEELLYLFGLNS
T2 sequence 2: T1 sequence

[1] = target: T3, Rrp1-FLAG (purified recombinant) (S. pombe, UniProt O13762 1-897); assay: co-IP; purified Rad51 and FLAG-tagged Rrp1 (250 nM each) in IP buffer (35 mM Tris-HCl pH 7.5, 1 mM DTT, 100 mM NaCl, 3.5 mM MgCl2, 0.1% NP-40, 5% glycerol), 30 min at 30°C; precipitated with anti-FLAG M2 affinity gel 2 h at 4°C, eluted with 3xFLAG peptide, western blot; conditions: both partners purified
T3 construct: Rrp1 of Schizosaccharomyces pombe, rrp1+ in pGEX-6P; only the former was removed'; read here as GST-Rrp1-3xFLAG; GST removed with HRV-3C protease; also called purified Rrp1-FLAG; FLAG-tagged Rrp1; source: E. coli Rosetta, from pGEX-6P, purified (GSH sepharose, HiTrap Heparin, Resource Q, HiTrap SP); not shown: GST, N-terminal, cleaved; 3xFLAG, C-terminal, kept
T3 sequence (looked up): T2 sequence 1

B1: 16A(-)/16A(+) 83-mer dsDNA (dsDNA)
DNA 1: AAATGAACATAAAGTAAATAAGTATAAGGATAATACAAAATAAGTAAATGAATAAACATAGAAAATAAAGTAAAGGATATAAA
DNA 2: TTTATATCCTTTACTTTATTTTCTATGTTTATTCATTTACTTATTTTGTATTATCCTTATACTTATTTACTTTATGTTCATTT
binding result (Rad51): binds

B2: oligo-dT 72-mer (ssDNA)
DNA: TTTTTTTTTTTTTTTTTTTTTTTTTTTTTTTTTTTTTTTTTTTTTTTTTTTTTTTTTTTTTTTTTTTTTTTT
binding result (Rrp1;Rad51): binds

B3: Rad51 (purified) (natural protein, S. pombe, UniProt P36601 1-365, looked up)
chain: T1 sequence
notes: Rad51 of Schizosaccharomyces pombe; also called purified Rad51
binding result [1]: binds
